{"source": "the nanobody polyreactivity screen of Harvey et al. (2022)"}
{"assay": "yeast display, Sf9 membrane polyspecificity reagent, FACS + sequencing; frameworks hold sequencing errors", "method_in_brief": "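Galactose induction of a Saccharomyces cerevisiae BJ5465 synthetic nanobody display library ran 36–48 hours. The cells were then stained for 1 hour at 4 °C with 10% biotinylated, detergent-solubilized Sf9 membrane reagent, pulled down on streptavidin microbeads and FACS-sorted into low and high (top ~1%) gates on expression and reagent-binding fluorescence. Labels for polyreactivity follow the gate of origin.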"}
{"sequence": "QVQLVESGGGLVQAGGSLRLSCAASGSTFVLYAMGWYRQAPGKERELVATITTSGARTHYADSVKGRFTISRDNAKNTVYLQINSLKPEDTAVYYCAAESYWTGYDYGGQGTQVTVSS", "polyreactivity (PSR sort gate)": "low polyreactivity"}
{"sequence": "QVQLVESGGGLVQAGGSLRLSCAASGSTFVNNAMGWYRQAPGKERELGASITVGGSTYYADSVKGRFTISRDNAKNTVYLQMNSLKPEDTAVYYCAAADYRFWSRYDYWGQGTQVTVSS", "polyreactivity (PSR sort gate)": "low polyreactivity"}
{"sequence": "QVQLVESGGGLVQAGGSLRLSCAASGSTFVNYAMGWYRQAPGKERELVAAITRGGRTYYADSVKGRFTISRDNAKNTVYLQMNSLKPEDTAVYYCAARRSYNPAFGYWGQGTQVTVSS", "polyreactivity (PSR sort gate)": "high polyreactivity"}
{"sequence": "QVQLVESGGGLVQAGGSLRLSCAASGSTFVNYVMGWYRPAPGKERELVAAISRRGTSTRYADSVKGRFTISRDNAKNTVYLQMNSLKPEDTAVYYCAATRYVGVTGYGYWGQGTQVTVSS", "polyreactivity (PSR sort gate)": "high polyreactivity"}
{"sequence": "QVQLVESGGGLVQAGGSLRLSCAASGSTFVPNAMGWYRQAPGKERELVAAISYSGGTTYYADSVKGRFTISRDNAKNTVYLQMNSLKPEDTEVYYCAARSKGAAAILDDYWGQGTQVTVSS", "polyreactivity (PSR sort gate)": "low polyreactivity"}
{"sequence": "QVQLVESGGGLVQAGGSLRLSCAASGSTFVPNAMGWYRQSPGKERELVAAISRSAGSTYYADSVKGRFTISRDNAKNTVYLQMNSLKPEDTAVYYCAADSLTYIAYDYWGQGTQVTVSS", "polyreactivity (PSR sort gate)": "high polyreactivity"}
{"sequence": "QVQLVESGGGLVQAGGSLRLSCAASGSTFVPYAIGWYRQAPGKERELVASITYSGGSTSYADSVKGRFTISRDNAKNTVYLQMNSLKPEDTAVYYCAAVPWVVYSGYDYWGQGTQVTVSS", "polyreactivity (PSR sort gate)": "low polyreactivity"}
{"sequence": "QVQLVESGGGLVQAGGSLRLSCAASGSTFVPYAMGWYRQAPGKERELVAAITTSGGNTYYADSVKGRFTISRDNAKNTVYLQMNSLKPEDTAVYYCAADTYRRFDYWGQGTQVTVSS", "polyreactivity (PSR sort gate)": "low polyreactivity"}
{"sequence": "QVQLVESGGGLVQAGGSLRLSCAASGSTFVPYTMGWYRQAPGKERELVAAISGSGGTDYADSVKGRFTISRDNAKNTVYLQMNSLKPEDTAVYYCAADPQYWRFYSYGGGDDYWGQGTQVTVSS", "polyreactivity (PSR sort gate)": "low polyreactivity"}
{"sequence": "QVQLVESGGGLVQAGGSLRLSCAASGSTFVQNAMGWYRQAPGKERELVAAISRTGGSTYYADSVKGRFTISRDNAKNTVYLQMKSLIPEDTAVYYCATRPPHYSWPKIIEFGSWGQGSQVTVSS", "polyreactivity (PSR sort gate)": "high polyreactivity"}
{"sequence": "QVQLVESGGGLVQAGGSLRLSCAASGSTFVQYAKGWSRQAPGKERELVATISKSGGDTYADSVKGRFTISRDNAKNTVYLQMNSLKPEDTAVYYCAAGYTWVSHRYRYAYNYWGQGTQVTVSS", "polyreactivity (PSR sort gate)": "low polyreactivity"}
{"sequence": "QVQLVESGGGLVQAGGSLRLSCAASGSTFVQYAMGWYRQAPGKERELVAAITSGGRTNYADSVKGRFTISRDNAKNTVYLQMNSLKPEDTAVYYCAARYGSNSPRGYEYYYWGQGTQVTVSS", "polyreactivity (PSR sort gate)": "low polyreactivity"}
{"sequence": "QVQLVESGGGLVQAGGSLRLSCAASGSTFVQYDMGWYRQAPGKERELVAGITRTGSTYADSVKGRFTISRDNAKNTVYLQMNSLKPEDTADYYCAVYVSGYAQTSRYDYWGQGTQVTVSS", "polyreactivity (PSR sort gate)": "low polyreactivity"}
{"sequence": "QVQLVESGGGLVQAGGSLRLSCAASGSTFVRNAMGWYRQAPGKERELVAGISTGDNTYYADSVKGRFTISRDNAKNTVYLQMNSLKPEDTAVYYCNADVYTEYDYWGQGTQVTVSS", "polyreactivity (PSR sort gate)": "low polyreactivity"}
{"sequence": "QVQLVESGGGLVQAGGSLRLSCAASGSTFVRNAMGWYRQEPGKERELVANISSGGGTKYADSVKGRFTISRDNAQNTVYLQMNSLKPEDTAVYYCAKRTIYSGRFYYWGQGTQVTVSS", "polyreactivity (PSR sort gate)": "high polyreactivity"}
{"sequence": "QVQLVESGGGLVQAGGSLRLSCAASGSTFVRNARGWYRQAPGKERELVAAISRSGGRTYYADSVKGRFTISRDNAKNTVYLQMNSLKPEDTAVYYCAADGKSGYDYWGQGTQVTVSS", "polyreactivity (PSR sort gate)": "high polyreactivity"}
{"sequence": "QVQLVESGGGLVQAGGSLRLSCAASGSTFVRYAMGWYRLAPGKERELVAAIAKSGGSTYYADSVKGRFTISRDIAKNTVYLQMNSLKPEDTAVDYCNSDVYKNSKVRIMGYWGLGTQVTVSS", "polyreactivity (PSR sort gate)": "low polyreactivity"}
{"sequence": "QVQLVESGGGLVQAGGSLRLSCAASGSTFVRYAMGWYRQAPGKERELVAAISKSGGSTYYADSVKGRFTISRDNAKNTVYLQMNSLKPEDTAVYFCNADVYKNSKFRIMGYWGQGTQVTVSS", "polyreactivity (PSR sort gate)": "low polyreactivity"}
{"sequence": "QVQLVESGGGLVQAGGSLRLSCAASGSTFVRYAMGWYRQAPGKERELVAAISNGGNTYYADSVKGRFTISHDNAKNTVYLQMNSLKPEDTAVYYCNKGYVYGHEYWGQGTQVTVSS", "polyreactivity (PSR sort gate)": "high polyreactivity"}
{"sequence": "QVQLVESGGGLVQAGGSLRLSCAASGSTFVRYVMGWYRQAPGKERELVAAIRYRGGSTYYADSVKGRFTISRDNAKNTVYLQMNSLKPEDTAVYYCATDWRRYTKQYGYWGQGTQVSVSS", "polyreactivity (PSR sort gate)": "high polyreactivity"}
{"sequence": "QVQLVESGGGLVQAGGSLRLSCAASGSTFVSNAMGWYRPAPGKERELVAAISSSGGRTSYADSVKGRFTISRDNAKNTVYLQMNSLKPEDTAVYYCAARFKSVDYVQYYYWGQGTQVTVSS", "polyreactivity (PSR sort gate)": "low polyreactivity"}
{"sequence": "QVQLVESGGGLVQAGGSLRLSCAASGSTFVSNAMGWYRQAPGKERELVAGITFSGGSTYYADSVKGRFTISRDNAKNTVYLQMNSLKPEDTAVYYCAAEFHWWYAGYDYGYWGQGTQVTASS", "polyreactivity (PSR sort gate)": "low polyreactivity"}
{"sequence": "QVQLVESGGGLVQAGGSLRLSCAASGSTFVSSAMGWYRQAPGKERELVARITWNGGNTYADSVKGRFTISRDNAKNTVYLQMNSLKPEDTAVYYCSTDYVVGFYYWGQGTQVTVSS", "polyreactivity (PSR sort gate)": "low polyreactivity"}
{"sequence": "QVQLVESGGGLVQAGGSLRLSCAASGSTFVSYAMGWYRQAPGKEREFVAAITWSGGSTYYADSVKGRFTISRDNAKNTVYLQMNRLKPEDTAVYYFARPYRGSPRYYYWGQGTQVTVSS", "polyreactivity (PSR sort gate)": "high polyreactivity"}
{"sequence": "QVQLVESGGGLVQAGGSLRLSCAASGSTFVTNAMGWYSQAPGKEREFVAAISNSSGSTYYADSVKGRFTISRDNAKNTVYLQMNSLKPEDTAVYYCNATPDDWLQEDYWGQGTQVTVSS", "polyreactivity (PSR sort gate)": "low polyreactivity"}
{"sequence": "QVQLVESGGGLVQAGGSLRLSCAASGSTFVTYAMGWYRQAPGKERELVAAITTSGGSTYYADSVKGRFTISRANAMNTVYLQMNSLKPEDTAVYYCIAGFEYTQEYDYWGQGTQVTVSS", "polyreactivity (PSR sort gate)": "low polyreactivity"}
{"sequence": "QVQLVESGGGLVQAGGSLRLSCAASGSTFVVNAMAWYRQAPGKERELVAVISYSGDSTYYADSVKGRFTISRDNAKNTVYLQMNSLKPEDSAVYYCNADYYDESNWGQGTQVTVSS", "polyreactivity (PSR sort gate)": "low polyreactivity"}
{"sequence": "QVQLVESGGGLVQAGGSLRLSCAASGSTFVVNTMGWYRQAPGKERELVATISDIGSSTDYADSVKGRFTISRDNAKNTVYLQMNSLKPEDTAVYYCAASIDDIITDDFYWVSWAYYYWGQGTQVTVSS", "polyreactivity (PSR sort gate)": "low polyreactivity"}
{"sequence": "QVQLVESGGGLVQAGGSLRLSCAASGSTFVVNVMGWYRQAPGNEMELVAAITYRSGSTYYADSVKGRFTISRDNEKNTVYLQMNSLNPEDSAVYYCAAGYYSRYYEAFEYYYWGQGTQVTVSS", "polyreactivity (PSR sort gate)": "high polyreactivity"}
{"sequence": "QVQLVESGGGLVQAGGSLRLSCAASGSTFVVYAMGWSRQAPGKERELVAAISTSDTSTYYADSVKGRFTISRDNAKNTVYLQMNSLKPEDTAVYDCAADGTYVYINEYEYWGQGTQVTVSS", "polyreactivity (PSR sort gate)": "low polyreactivity"}
{"sequence": "QVQLVESGGGLVQAGGSLRLSCAASGSTFVVYAMGWYRQAPGKERELVAAISYRAGITYYADSVKGRFTISRDNAKNTVYLQMNSLKPEDTAVYYWAADRYYGVGSGYWGQGTQVTVSS", "polyreactivity (PSR sort gate)": "high polyreactivity"}
{"sequence": "QVQLVESGGGLVQAGGSLRLSCAASGSTFVVYAMGWYRQAPGKERELVAAITTSDDSTYYADSVKGRFTISRDNAKNTVYLQMNSLKPEDTAVYYCAATLRWQDGYWGQGTQVTVSS", "polyreactivity (PSR sort gate)": "low polyreactivity"}
{"sequence": "QVQLVESGGGLVQAGGSLRLSCAASGSTFVVYAMGWYRQAPGKERELVASISSGDSTTYADSVKGRFTISRDNAKNTVYLQMNSLKPEDTAVYYCNADYAYYLDVYSPYDSWGQGTQVTVSS", "polyreactivity (PSR sort gate)": "low polyreactivity"}
{"sequence": "QVQLVESGGGLVQAGGSLRLSCAASGSTFVWYAMGWYRQAPGKERELVAAISSGGSTNYADSVKGRFTISRDNAKNTVYLQMNSLKPEDTAVYYCAAKAYFSSYWRWRGAMDHWGQGTQVTVSS", "polyreactivity (PSR sort gate)": "low polyreactivity"}
{"sequence": "QVQLVESGGGLVQAGGSLRLSCAASGSTFVYAMAWSRQAPGKERELVAAIRLRSGSTYYADSVKGRFTISRDNAKNTVYLQMNSLKPEDTAVYYCAAAIQSSKVSVKFGYWGQGTQVTVSS", "polyreactivity (PSR sort gate)": "high polyreactivity"}
{"sequence": "QVQLVESGGGLVQAGGSLRLSCAASGSTFVYAMGWYRQAPGKERELVAAITTGDSTYYADSVKGRFTISRDNAKNTVYLQMNSLKPEDTAVYYCAAQWYTRYGEYGYWGQGTQVTVSS", "polyreactivity (PSR sort gate)": "low polyreactivity"}
{"sequence": "QVQLVESGGGLVQAGGSLRLSCAASGSTFVYNAMGGYSQAPGKERELGASISRGGGITYYADSVKGRFTISRDNAKNTVYLQMNSLKPEDTAVYYCAKTKGYRGHYYYWGQGTQVTVSS", "polyreactivity (PSR sort gate)": "high polyreactivity"}
{"sequence": "QVQLVESGGGLVQAGGSLRLSCAASGSTFVYNAMGWYRQAPGKERELVAAITVIGGRTYYADSVKGRFTISRDNAKNTVYLQMNSLKPEDTAVYYCNADATESIGYYDEYEYWGQGTQVTVSS", "polyreactivity (PSR sort gate)": "low polyreactivity"}
{"sequence": "QVQLVESGGGLVQAGGSLRLSCAASGSTFVYNDMGWNRQAPGKEREFVAAITYSGSTYYADSVKGRFTISRDNAKNTVYLQMNSLKPEDTAVYYCAAEYVWRFEYWGQGTQVTVSS", "polyreactivity (PSR sort gate)": "low polyreactivity"}
{"sequence": "QVQLVESGGGLVQAGGSLRLSCAASGSTFVYNTMGWSRQAPGKERELVADITWRGASTYYADSVKGRFTISRDNAKNTVYLQMNSLKPEDTAVYYCAADYYSATGSYAYDYWGQGTQVTVSS", "polyreactivity (PSR sort gate)": "low polyreactivity"}
{"sequence": "QVQLVESGGGLVQAGGSLRLSCAASGSTFVYNVMGWYRQAPGKERELVAAITSGVRTYYADSVKGRFTISRDNAMNTVYLQMNSLKPEDTAVYYCATGLRYAKYYYWGQGTQVTVSS", "polyreactivity (PSR sort gate)": "high polyreactivity"}
{"sequence": "QVQLVESGGGLVQAGGSLRLSCAASGSTFVYYAMGLYRQAPGKERELVAAITASGGGTYYADSVKGRFTISRDNAKNPVYLQMNSLKPEVTAVYYCNRGYDYWGQGTQVTVSS", "polyreactivity (PSR sort gate)": "low polyreactivity"}
{"sequence": "QVQLVESGGGLVQAGGSLRLSCAASGSTFVYYAMGWYRQAPGKEREFVAAISYSGGNTYYADSVKGRFTISRDNAMNTVYLQMNSLKPEDTAVYYCAAYYYYFYHKVIWYELDYWGQGTQVTVSS", "polyreactivity (PSR sort gate)": "low polyreactivity"}
